These are literature values, as cited in paper PMC4465451.

Usually pKa stands for the pH at which an ionisable group is half protonated.

The data set addresses His5 (UniProt position 30, DRVYIHPFHLV). Briefly: mass spectrometry. As to conditions: Free peptide, taken as fully solvent accessible.

With Angiotensin III, the pKa is recorded as 6.50.
